Results taken from article PMC12099056, “Targeting the Exonic Circular OGT RNA/O-GlcNAc Transferase/Forkhead Box C1 Axis Inhibits Asparagine- and Alanine-Mediated Ferroptosis Repression in Neuroblastoma Progression” (Research, 2025).

How the values were obtained:
[1] = Western blot of FOXC1 level; conditions: glycan lost; control: mock, sh-Scb or untreated
[2] = target: T1, recombinant GST-tagged OGT (wild-type) (human, UniProt O15294 1-1046); assay: co-IP; recombinant GST-tagged OGT and MBP-tagged FOXC1 proteins (wild-type or truncations), co-IP and Western blot; conditions: both partners purified
T1 construct: O-GlcNAc transferase (OGT), human cDNA (printed as 3,131 bp) from Genechem; wild-type construct as against truncations
T1 sequence (looked up): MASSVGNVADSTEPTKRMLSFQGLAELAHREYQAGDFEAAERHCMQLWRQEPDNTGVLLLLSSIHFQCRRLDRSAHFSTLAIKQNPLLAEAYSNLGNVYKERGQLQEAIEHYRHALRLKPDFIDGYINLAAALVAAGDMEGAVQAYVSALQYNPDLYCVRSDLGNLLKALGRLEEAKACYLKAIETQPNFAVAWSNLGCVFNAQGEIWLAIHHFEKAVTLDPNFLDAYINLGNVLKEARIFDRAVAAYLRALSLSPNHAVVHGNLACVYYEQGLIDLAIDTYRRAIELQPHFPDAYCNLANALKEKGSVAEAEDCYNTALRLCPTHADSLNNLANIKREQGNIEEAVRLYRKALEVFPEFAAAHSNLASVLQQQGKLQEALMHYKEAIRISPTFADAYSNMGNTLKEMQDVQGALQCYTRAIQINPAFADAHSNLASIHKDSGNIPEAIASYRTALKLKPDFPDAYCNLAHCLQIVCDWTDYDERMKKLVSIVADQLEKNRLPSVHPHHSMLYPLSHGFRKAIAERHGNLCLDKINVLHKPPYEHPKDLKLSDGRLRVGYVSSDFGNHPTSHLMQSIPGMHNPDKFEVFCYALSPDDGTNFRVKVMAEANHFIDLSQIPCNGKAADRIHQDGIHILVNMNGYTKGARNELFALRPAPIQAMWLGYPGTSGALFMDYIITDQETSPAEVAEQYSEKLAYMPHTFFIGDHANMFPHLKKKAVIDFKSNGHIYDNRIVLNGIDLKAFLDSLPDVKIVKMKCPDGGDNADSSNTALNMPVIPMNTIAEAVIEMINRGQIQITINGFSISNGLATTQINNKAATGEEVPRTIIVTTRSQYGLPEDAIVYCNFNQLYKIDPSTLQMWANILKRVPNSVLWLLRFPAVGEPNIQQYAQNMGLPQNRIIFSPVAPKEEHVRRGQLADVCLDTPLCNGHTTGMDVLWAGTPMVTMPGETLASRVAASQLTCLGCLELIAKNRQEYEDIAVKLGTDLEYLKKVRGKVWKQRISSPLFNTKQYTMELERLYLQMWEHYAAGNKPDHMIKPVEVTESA

[3] = CHX chase Western blot (protein stability), SH-SY5Y; conditions: glycan lost; control: sh-Scb
[4] = dual-luciferase FOXC1 reporter, SH-SY5Y; conditions: glycan lost; control: wild-type Flag-FOXC1
[5] = CHX chase Western blot (protein stability); conditions: glycan lost; control: untreated

B1: forkhead box C1 (FOXC1): sh-OGT (protein)
parent chain: MQARYSVSSPNSLGVVPYLGGEQSYYRAAAAAAGGGYTAMPAPMSVYSHPAHAEQYPGGMARAYGPYTPQPQPKDMVKPPYSYIALITMAIQNAPDKKITLNGIYQFIMDRFPFYRDNKQGWQNSIRHNLSLNECFVKVPRDDKKPGKGSYWTLDPDSYNMFENGSFLRRRRRFKKKDAVKDKEEKDRLHLKEPPPPGRQPPPAPPEQADGNAPGPQPPPVRIQDIKTENGTCPSPPQPLSPAAALGSGSAAAVPKIESPDSSSSSLSSGSSPPGSLPSARPLSLDGADSAPPPPAPSAPPPHHSQGFSVDNIMTSLRGSPQSAAAELSSGLLASAAASSRAGIAPPLALGAYSPGQSSLYSSPCSQTSSAGSSGGGGGGAGAAGGAGGAGTYHCNLQAMSLYAAGERGGHLQGAPGGAGGSAVDDPLPDYSLPPVTSSSSSSLSHGGGGGGGGGGQEAGHHPAAHQGRLTSWYLNQAGGDLGHLASAAAAAAAAGYPGQQQNFHSVREMFESQRIGLNNSPVNGNSSCQMAFPSSQSLYRTSGAFVYDCSKF
expression_or_secretion [1]: decreases

B2: recombinant MBP-tagged FOXC1 (wild-type) (natural protein, human, UniProt Q12948 1-553, looked up)
chain: MQARYSVSSPNSLGVVPYLGGEQSYYRAAAAAAGGGYTAMPAPMSVYSHPAHAEQYPGGMARAYGPYTPQPQPKDMVKPPYSYIALITMAIQNAPDKKITLNGIYQFIMDRFPFYRDNKQGWQNSIRHNLSLNECFVKVPRDDKKPGKGSYWTLDPDSYNMFENGSFLRRRRRFKKKDAVKDKEEKDRLHLKEPPPPGRQPPPAPPEQADGNAPGPQPPPVRIQDIKTENGTCPSPPQPLSPAAALGSGSAAAVPKIESPDSSSSSLSSGSSPPGSLPSARPLSLDGADSAPPPPAPSAPPPHHSQGFSVDNIMTSLRGSPQSAAAELSSGLLASAAASSRAGIAPPLALGAYSPGQSSLYSSPCSQTSSAGSSGGGGGGAGAAGGAGGAGTYHCNLQAMSLYAAGERGGHLQGAPGGAGGSAVDDPLPDYSLPPVTSSSSSSLSHGGGGGGGGGGQEAGHHPAAHQGRLTSWYLNQAGGDLGHLASAAAAAAAAGYPGQQQNFHSVREMFESQRIGLNNSPVNGNSSCQMAFPSSQSLYRTSGAFVYDCSKF
notes: forkhead box C1 (FOXC1), human cDNA (1,662 bp) from Genechem; wild-type construct as against truncations; the printed AD1 domain is residues 1 to 68; a cDNA of 1,662 bp fits 553 codons and a stop codon
binding result [2]: binds

B3: forkhead box C1 (FOXC1): sh-OGT #1 (protein)
parent chain: MQARYSVSSPNSLGVVPYLGGEQSYYRAAAAAAGGGYTAMPAPMSVYSHPAHAEQYPGGMARAYGPYTPQPQPKDMVKPPYSYIALITMAIQNAPDKKITLNGIYQFIMDRFPFYRDNKQGWQNSIRHNLSLNECFVKVPRDDKKPGKGSYWTLDPDSYNMFENGSFLRRRRRFKKKDAVKDKEEKDRLHLKEPPPPGRQPPPAPPEQADGNAPGPQPPPVRIQDIKTENGTCPSPPQPLSPAAALGSGSAAAVPKIESPDSSSSSLSSGSSPPGSLPSARPLSLDGADSAPPPPAPSAPPPHHSQGFSVDNIMTSLRGSPQSAAAELSSGLLASAAASSRAGIAPPLALGAYSPGQSSLYSSPCSQTSSAGSSGGGGGGAGAAGGAGGAGTYHCNLQAMSLYAAGERGGHLQGAPGGAGGSAVDDPLPDYSLPPVTSSSSSSLSHGGGGGGGGGGQEAGHHPAAHQGRLTSWYLNQAGGDLGHLASAAAAAAAAGYPGQQQNFHSVREMFESQRIGLNNSPVNGNSSCQMAFPSSQSLYRTSGAFVYDCSKF
degradation_or_half_life [3]: decreases

B4: forkhead box C1 (FOXC1): S8A (protein)
parent chain: MQARYSVSSPNSLGVVPYLGGEQSYYRAAAAAAGGGYTAMPAPMSVYSHPAHAEQYPGGMARAYGPYTPQPQPKDMVKPPYSYIALITMAIQNAPDKKITLNGIYQFIMDRFPFYRDNKQGWQNSIRHNLSLNECFVKVPRDDKKPGKGSYWTLDPDSYNMFENGSFLRRRRRFKKKDAVKDKEEKDRLHLKEPPPPGRQPPPAPPEQADGNAPGPQPPPVRIQDIKTENGTCPSPPQPLSPAAALGSGSAAAVPKIESPDSSSSSLSSGSSPPGSLPSARPLSLDGADSAPPPPAPSAPPPHHSQGFSVDNIMTSLRGSPQSAAAELSSGLLASAAASSRAGIAPPLALGAYSPGQSSLYSSPCSQTSSAGSSGGGGGGAGAAGGAGGAGTYHCNLQAMSLYAAGERGGHLQGAPGGAGGSAVDDPLPDYSLPPVTSSSSSSLSHGGGGGGGGGGQEAGHHPAAHQGRLTSWYLNQAGGDLGHLASAAAAAAAAGYPGQQQNFHSVREMFESQRIGLNNSPVNGNSSCQMAFPSSQSLYRTSGAFVYDCSKF
other: transcriptional activity [4]: decreases

B5: forkhead box C1 (FOXC1): OSMI-1 (protein)
parent chain: MQARYSVSSPNSLGVVPYLGGEQSYYRAAAAAAGGGYTAMPAPMSVYSHPAHAEQYPGGMARAYGPYTPQPQPKDMVKPPYSYIALITMAIQNAPDKKITLNGIYQFIMDRFPFYRDNKQGWQNSIRHNLSLNECFVKVPRDDKKPGKGSYWTLDPDSYNMFENGSFLRRRRRFKKKDAVKDKEEKDRLHLKEPPPPGRQPPPAPPEQADGNAPGPQPPPVRIQDIKTENGTCPSPPQPLSPAAALGSGSAAAVPKIESPDSSSSSLSSGSSPPGSLPSARPLSLDGADSAPPPPAPSAPPPHHSQGFSVDNIMTSLRGSPQSAAAELSSGLLASAAASSRAGIAPPLALGAYSPGQSSLYSSPCSQTSSAGSSGGGGGGAGAAGGAGGAGTYHCNLQAMSLYAAGERGGHLQGAPGGAGGSAVDDPLPDYSLPPVTSSSSSSLSHGGGGGGGGGGQEAGHHPAAHQGRLTSWYLNQAGGDLGHLASAAAAAAAAGYPGQQQNFHSVREMFESQRIGLNNSPVNGNSSCQMAFPSSQSLYRTSGAFVYDCSKF
expression_or_secretion [1]: decreases
degradation_or_half_life [5]: decreases
